How the values were obtained:
[1] = target: T1, recombinant cMet/HGFR with c-terminal His-tag, Cy5-labeled (UniProt P08581 25-932, limits assumed, Cy5 label (reacted with Cy5 Mono NHS Ester; sites not stated)); assay: competitive TR-FRET (Eu-amivantamab/Cy5-c-MET), EC50 ratio vs Reference Material; Ex. 12 drug product with rHuPH20, 12 months at 5 C
T1 construct: Commercial protein; also called Cy5-c-MET; Cy5-labeled c-MET antigen; not shown: C-terminal His-tag
From the text: (§1) In this procedure, varying concentrations of unlabeled bispecific EGFR-cMet antibody sample compete with donor fluorophore (Europium (Eu) chelate) labeled bispecific EGFR-cMet antibody for binding to an acceptor fluorophore (Cy5)-labeled c-MET antigen. Excitation of the donor fluorophore results in a transfer of energy to the bound acceptor fluorophore (FRET process). The resultant FRET is detected by emission of light at 665 nm using a microplate reader capable of measuring time-resolved fluorescence. Sample dose response curves are compared to the Reference Material (RM).
(§2) c-MET Binding Materials and Methods. Certified commercial cMet, a recombinant cMet/HGFR with c-terminal His-tag is reacted with certified commercial Cy5 Mono NHS Ester to produce Cy5-labeled c-MET. Validated bispecific EGFR-cMet antibody is reacted with certified commercial Europium (Eu) chelate to produce Eu labeled bispecific EGFR-cMet antibody. […] Fluorescence is then measured by spectrophotometry at 665 nm, plotted against antibody concentration and analyzed by a four-parameter logistic model. The antibody concentration required to obtain half of the maximum fluorescence response (EC50) is determined for RM, assay control and samples. The potencies of assay control and samples are calculated based on the ratio of the sample (or control) and RM EC50 values and reported as a percentage activity relative to the RM.

[2] = target: T2, recombinant human EGFR/ErbB1/HER1 with C-terminal His tag, Cy5-labeled (human, UniProt P00533 25-645, Cy5 label (reacted with Cy5 Mono NHS Ester; sites not stated)); assay: competitive TR-FRET (Eu-amivantamab/Cy5-EGFR), EC50 ratio vs Reference Material; Ex. 2 Formulation 2 (50 mM histidine), T0, 25 C table
T2 construct: Commercial protein; also called Cy5-EGFR; Cy5-labeled EGFR antigen; not shown: C-terminal His tag
From the text: as §1, with “EGFR” for “c-MET”, “RM.” for “Reference Material (RM).”
as §2, with “EGFR” for “c-MET”, “EGFR,” for “cMet,”, “human EGFR/ErbB1/HER1” for “cMet/HGFR”, “C-terminal His tag” for “c-terminal His-tag”, “EGFR.” for “c-MET.”, “Eu-labeled” for “Eu labeled”

[3] = target: T2, recombinant human EGFR/ErbB1/HER1 with …; assay: competitive TR-FRET (Eu-amivantamab/Cy5-EGFR), EC50 ratio vs Reference Material; Ex. 2 Formulation 2 (50 mM histidine), T0, 5 C table
From the text: as §1, with “EGFR” for “c-MET”, “RM.” for “Reference Material (RM).”
as §2, with “EGFR” for “c-MET”, “EGFR,” for “cMet,”, “human EGFR/ErbB1/HER1” for “cMet/HGFR”, “C-terminal His tag” for “c-terminal His-tag”, “EGFR.” for “c-MET.”, “Eu-labeled” for “Eu labeled”

[4] = target: T1, recombinant cMet/HGFR with c-terminal …; assay: competitive TR-FRET (Eu-amivantamab/Cy5-c-MET), EC50 ratio vs Reference Material; Ex. 11 drug product, 9 months at 5 C
From the text: as §1, §2

[5] = target: T1, recombinant cMet/HGFR with c-terminal …; assay: competitive TR-FRET (Eu-amivantamab/Cy5-c-MET), EC50 ratio vs Reference Material; Ex. 2 Formulation 2 (50 mM histidine), 3 months at 5 C
From the text: as §1, §2

[6] = target: T1, recombinant cMet/HGFR with c-terminal …; assay: competitive TR-FRET (Eu-amivantamab/Cy5-c-MET), EC50 ratio vs Reference Material; Ex. 11 drug product, 12 months at 5 C
From the text: as §1, §2

[7] = target: T1, recombinant cMet/HGFR with c-terminal …; assay: competitive TR-FRET (Eu-amivantamab/Cy5-c-MET), EC50 ratio vs Reference Material; Ex. 11 drug product, 3 months at 25 C
From the text: as §1, §2

[8] = target: T1, recombinant cMet/HGFR with c-terminal …; assay: competitive TR-FRET (Eu-amivantamab/Cy5-c-MET), EC50 ratio vs Reference Material; Ex. 11 drug product, 0 months, 5 C table
From the text: as §1, §2

[9] = target: T2, recombinant human EGFR/ErbB1/HER1 with …; assay: competitive TR-FRET (Eu-amivantamab/Cy5-EGFR), EC50 ratio vs Reference Material; Ex. 11 drug product, 5 months at 5 C
From the text: as §1, with “EGFR” for “c-MET”, “RM.” for “Reference Material (RM).”
as §2, with “EGFR” for “c-MET”, “EGFR,” for “cMet,”, “human EGFR/ErbB1/HER1” for “cMet/HGFR”, “C-terminal His tag” for “c-terminal His-tag”, “EGFR.” for “c-MET.”, “Eu-labeled” for “Eu labeled”

B1: amivantamab (bispecific antibody, human IgG1, kappa)
heavy 1: not shown
light 1: not shown
heavy 2: not shown
light 2: DIQMTQSPSSVSASVGDRVTITCRASQGISNWLAWFQHKPGKAPKLLIYAASSLLSGVPSRFSGSGSGTDFTLTISSLQPEDFATYYCQQANSFPITFGQGTRLEIKRTVAAPSVFIFPPSDEQLKSGTASVVCLLNNFYPREAKVQWKVDNALQSGNSQESVTEQDSKDSTYSLSSTLTLSKADYEKHKVYACEVTHQGLSSPVTKSFNRGEC
notes: The samples tested were high concentration (160 mg/mL) formulations, fresh or stored or stressed; also called JNJ-61186372; bispecific EGFR-cMet antibody
cMET Binding activity relative to Reference Material (%) [1]: 97% | EGFR Binding % activity relative to RM [2]: 103% | EGFR Binding % activity relative to RM [3]: 103% | cMET Binding activity relative to Reference Material (%) [4]: 101% | cMET Binding % activity relative to RM [5]: 98% | cMET Binding activity relative to Reference Material (%) [6]: 98% | cMET Binding activity relative to Reference Material (%) [7]: 94% | cMET Binding activity relative to Reference Material (%) [8]: 85% | EGFR Binding activity relative to Reference Material (%) [9]: 85%
